Measured values as given in paper PMC9884275, “Metamorphism in TDP-43 prion-like domain determines chaperone recognition” (Nature Communications, 2023).

Experiments:
Details in all cases: both partners purified
DNAJC7 = target: T1, DNAJC7 (human, UniProt Q99615 1-494); experiment: NMR titration; 15N-HSQC at 15 °C, 800 MHz; 25–35 μM 15N/13C-labelled PLD with HSP72 and a JDP at 1:2:2 molar ratio (PLD:HSP70:co-chaperone), NMR buffer with 10 mM DTT
T1 construct: DNAJC7, human, cDNA cloned into pET28a (GenScript); also called HSP40 (class C JDP)
T1 sequence (looked up): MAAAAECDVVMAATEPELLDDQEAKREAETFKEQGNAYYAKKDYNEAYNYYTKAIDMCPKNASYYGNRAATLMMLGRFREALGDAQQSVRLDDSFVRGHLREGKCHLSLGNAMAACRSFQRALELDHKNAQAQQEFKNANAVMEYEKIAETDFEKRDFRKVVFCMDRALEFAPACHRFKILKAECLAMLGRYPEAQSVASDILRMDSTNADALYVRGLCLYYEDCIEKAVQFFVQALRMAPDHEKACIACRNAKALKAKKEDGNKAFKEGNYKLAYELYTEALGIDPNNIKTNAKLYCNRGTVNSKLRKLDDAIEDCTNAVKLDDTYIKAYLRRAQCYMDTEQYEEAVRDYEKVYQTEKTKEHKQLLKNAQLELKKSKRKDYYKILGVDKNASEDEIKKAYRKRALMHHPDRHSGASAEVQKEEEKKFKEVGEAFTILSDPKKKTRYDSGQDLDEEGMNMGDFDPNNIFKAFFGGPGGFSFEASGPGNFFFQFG

DNAJB1 = target: T2, DNAJB1 (human, UniProt P25685 1-340); experiment: as above
T2 construct: DNAJB1, human, cDNA cloned into pET28a (GenScript); also called HSP40 (class B JDP)
T2 sequence (P25685 whole entry): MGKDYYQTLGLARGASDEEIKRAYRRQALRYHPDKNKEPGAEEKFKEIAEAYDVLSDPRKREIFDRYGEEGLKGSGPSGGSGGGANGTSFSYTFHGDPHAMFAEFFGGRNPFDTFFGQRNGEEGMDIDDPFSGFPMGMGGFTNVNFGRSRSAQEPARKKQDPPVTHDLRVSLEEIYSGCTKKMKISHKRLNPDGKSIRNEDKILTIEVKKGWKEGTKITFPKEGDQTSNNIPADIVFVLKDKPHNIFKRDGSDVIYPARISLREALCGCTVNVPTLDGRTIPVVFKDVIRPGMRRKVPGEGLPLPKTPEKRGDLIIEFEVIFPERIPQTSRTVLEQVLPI

DNAJB4 = target: T3, DNAJB4 (human, UniProt Q9UDY4 1-337); experiment: as above
T3 construct: DNAJB4, human, cDNA cloned into pET28a (GenScript); also called HSP40 (class B JDP)
T3 sequence (Q9UDY4 whole entry): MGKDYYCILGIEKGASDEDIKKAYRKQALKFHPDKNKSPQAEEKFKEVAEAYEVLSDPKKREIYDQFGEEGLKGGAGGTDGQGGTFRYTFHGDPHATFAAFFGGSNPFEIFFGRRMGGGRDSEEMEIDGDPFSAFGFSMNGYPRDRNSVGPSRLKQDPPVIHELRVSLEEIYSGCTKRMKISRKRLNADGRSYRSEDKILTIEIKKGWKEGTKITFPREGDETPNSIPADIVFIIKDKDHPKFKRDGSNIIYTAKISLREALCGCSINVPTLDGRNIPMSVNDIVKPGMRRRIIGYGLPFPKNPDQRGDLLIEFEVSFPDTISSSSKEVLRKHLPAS

DNAJA2 = target: T4, DNAJA2 (human, UniProt O60884 1-412); experiment: NMR titration; 15N-HSQC at 15 °C, 800 MHz; 25–35 μM 15N/13C-labelled PLD in NMR buffer with 10 mM DTT (5 mM ZnCl2 for DNAJA2); unlabelled JDP co-chaperones added; signal intensity decay shown at 1:2 molar ratio
T4 construct: DNAJA2, human, cDNA cloned into pET28a (GenScript); 5 mM ZnCl2 and 10 mM DTT were added to its NMR samples; also called HSP40 (class A JDP)
T4 sequence (O60884 whole entry): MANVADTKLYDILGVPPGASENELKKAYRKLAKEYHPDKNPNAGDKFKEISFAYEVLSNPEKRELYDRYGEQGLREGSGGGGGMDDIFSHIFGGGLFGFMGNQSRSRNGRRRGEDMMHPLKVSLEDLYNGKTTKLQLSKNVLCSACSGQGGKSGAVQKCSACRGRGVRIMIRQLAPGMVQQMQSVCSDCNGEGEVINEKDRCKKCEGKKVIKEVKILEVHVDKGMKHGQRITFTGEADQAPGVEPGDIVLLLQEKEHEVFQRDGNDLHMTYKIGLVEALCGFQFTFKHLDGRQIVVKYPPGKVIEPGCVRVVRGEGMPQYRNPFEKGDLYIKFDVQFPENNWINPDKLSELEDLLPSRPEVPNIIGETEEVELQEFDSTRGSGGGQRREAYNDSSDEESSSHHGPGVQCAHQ

Measured: binding result

B1: TDP-43 prion-like domain (fragment 274-414 of human TDP-43) (domain or fragment, UniProt Q13148 274-414, looked up)
chain: GRFGGNPGGFGNQGGFGNSRGGGAGLGNNQGSNMGGGMNFGAFSINPAMMAAAQAALQSSWGMMGMLASQQNQSGPSGNNQNQGNMQREPNQAFGSGNNSYSGSNSGAAIGWGSASNAGSGSGFNGGFGSSMDSKSSGWGM
notes: TDP-43, human, UniProt Q13148, C-terminal prion-like domain, residues 274-414; 15N/13C-labelled for the NMR experiments; also called PLD; TDP-43 PLD; not shown: Thioredoxin (TXA), N-terminal, cleaved; His6, N-terminal, cleaved
binds: DNAJC7 | DNAJB1 | DNAJB4 | DNAJA2
